Experimental findings from paper PMC6377231, “Structure of a bacterial ATP synthase” (eLife, 2019) are described below.

Holding throughout (assay): cryo-EM structure; intact Bacillus PS3 ATP synthase in GDN, three rotational states at 3.0, 3.0 and 3.2 Å; focused refinement of the membrane-embedded region at 3.3 Å
Data set [1] deals with the molecule itself.
Data set [2] addresses T1, Bacillus PS3 ATP synthase subunit α (Bacillus PS3, UniProt P09219 1-502).
T1 construct: ATP synthase subunit alpha of Bacillus PS3, expressed from plasmid pTR-ASDS (Suzuki et al., 2002); Three copies stand in the complex (α3β3γδε ab2c10); Residues in the model are in Supplementary file 1; also called αDP; source: E. coli strain DK8, plasmid pTR-ASDS; purified as part of the intact ATP synthase (GDN, HisTrap, Superose 6)
Particulars: both partners purified.

In data set [3] the target is T2, Bacillus PS3 ATP synthase subunit γ (Bacillus PS3, UniProt P09222 5-286).
T2 construct: ATP synthase subunit gamma of Bacillus PS3, expressed from plasmid pTR-ASDS (Suzuki et al., 2002); source: E. coli strain DK8, plasmid pTR-ASDS; purified as part of the intact ATP synthase (GDN, HisTrap, Superose 6)
T2 sequence (P09222 5-286): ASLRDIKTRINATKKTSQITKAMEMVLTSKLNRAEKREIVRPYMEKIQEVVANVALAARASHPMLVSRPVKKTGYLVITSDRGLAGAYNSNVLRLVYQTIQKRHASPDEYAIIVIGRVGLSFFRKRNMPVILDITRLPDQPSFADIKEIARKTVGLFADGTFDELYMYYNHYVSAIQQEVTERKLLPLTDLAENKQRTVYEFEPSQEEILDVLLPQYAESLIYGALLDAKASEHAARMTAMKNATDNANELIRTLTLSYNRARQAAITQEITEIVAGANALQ
Particulars: both partners purified.

T1 sequence (P09219 whole entry): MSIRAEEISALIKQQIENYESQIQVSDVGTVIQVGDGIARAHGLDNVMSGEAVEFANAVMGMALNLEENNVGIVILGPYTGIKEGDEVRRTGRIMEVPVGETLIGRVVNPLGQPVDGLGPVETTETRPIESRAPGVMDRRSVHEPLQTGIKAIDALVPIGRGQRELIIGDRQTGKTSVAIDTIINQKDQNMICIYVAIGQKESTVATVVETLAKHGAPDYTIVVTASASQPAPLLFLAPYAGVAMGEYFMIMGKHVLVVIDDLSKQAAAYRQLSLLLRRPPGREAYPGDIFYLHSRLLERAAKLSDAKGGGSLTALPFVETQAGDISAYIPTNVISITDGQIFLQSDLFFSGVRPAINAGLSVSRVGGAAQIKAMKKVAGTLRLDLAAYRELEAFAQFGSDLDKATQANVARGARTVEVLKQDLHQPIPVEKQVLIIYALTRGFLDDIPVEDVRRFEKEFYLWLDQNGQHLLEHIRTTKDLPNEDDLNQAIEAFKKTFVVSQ

B1: Bacillus PS3 ATP synthase subunit c (natural protein)
chain: MSLGVLAAAIAVGLGALGAGIGNGLIVSRTIEGIARQPELRPVLQTTMFIGVALVEALPIIGVVFSFIYLGR
notes: ATP synthase subunit c of Bacillus PS3, expressed from plasmid pTR-ASDS (Suzuki et al., 2002); Forms the ring of 10 c-subunits in the FO region; also called c-ring; c10-ring; source: E. coli strain DK8, plasmid pTR-ASDS; purified as part of the intact ATP synthase (GDN, HisTrap, Superose 6); copies: 10
A word on the stoichiometry N: it is a count of units in the complex or per binding partner. For the molecule B1, the “stoichiometry N” value in data set [1] was 10.

B2: Bacillus PS3 ATP synthase subunit ε (natural protein, UniProt P07678 1-132, looked up)
chain: MKTIHVSVVTPDGPVYEDDVEMVSVKAKSGELGILPGHIPLVAPLEISAARLKKGGKTQYIAVSGGFLEVRPDNVTILAQAAERAEDIDVLRAKARKSGRTPLQSQQDDIDFKRAELALKRAMNRLSVAEMK
notes: ATP synthase subunit epsilon of Bacillus PS3, expressed from plasmid pTR-ASDS (Suzuki et al., 2002); source: E. coli strain DK8, plasmid pTR-ASDS; purified as part of the intact ATP synthase (GDN, HisTrap, Superose 6)
Turning to B2, the binding result in data set [2] and in data set [3] was “binds” each time.
